Measurements taken from patent US20220241406A1.

Biological target: IgE antibodies of four Pru p 7 reactive human sera
Assay: ImmunoCAP IgE inhibition, inhibitor at 20 ug/mL in solution, rPru p 7 on solid phase, against dilution buffer control

percent inhibition of IgE binding to rPru p 7 (fourth serum): 80%
B1: recombinant Cup s GRPb (protein)
chain: AQIDCDKECNRRCSKASLHDRCLKYCGICCEKCHCVPPGTAGNEDVCPCYAHLKNSKGGHKCP
